Paper PMC6736547

Target: Pcdh γB6 ectodomain, γB6_(EC1–6), wild type
Test: cryo-EM structure

“Pcdh γB6 ectodomain, γB6_(EC1–6), wild type (domain or fragment)” was tested, and the stoichiometry N was 4.
